Literature values, collected in article PMC2667909.

Molecular target: Histone H3 peptide (H3K27me3) (Drosophila melanogaster) (UniProt P02299)

Polycomb (Pc) chromodomain (from UniProt P26017)
Kd: 5 µM
